According to PMC3585324, “InterAKTions with FKBPs - Mutational and Pharmacological Exploration” (PLoS ONE, 2013):

Legend:
GST_Akt1^S473D = molecular target: T1, GST_Akt1^S473D (UniProt P31749 1-480, S473D); assay: pull-down; GST pull-down: 15 µM FKBPs or Cyp40 with 22 µM GST_Akt1 S473D or GST_Akt1 S473D_ΔPH on glutathione resin, 3 h, 4 °C, NETN buffer (20 mM Tris-HCl pH 8.0, 100 mM NaCl, 1 mM EDTA, 0.5% igepal); AMP-PNP (5 mM), rapamycin (1 µM) or DMSO where indicated; Western blot; settings: both partners purified
T1 construct: Akt1 with the phosphomimetic S473D, called constitutively active; also called purified GST-tagged Akt1S473D; GST-tagged active Akt

[1] = molecular target: T2, purified inactive Akt1 (untagged) (UniProt P31749 1-480); assay: pull-down; FLAG pull-down: FLAG column saturated with FKBP51_FLAG, 20 µM inactive Akt, NETN buffer, 4 °C overnight, eluted with FLAG peptide; Western blot; settings: both partners purified
T2 construct: source: bought: Merck Millipore
T2 sequence (P31749 whole entry): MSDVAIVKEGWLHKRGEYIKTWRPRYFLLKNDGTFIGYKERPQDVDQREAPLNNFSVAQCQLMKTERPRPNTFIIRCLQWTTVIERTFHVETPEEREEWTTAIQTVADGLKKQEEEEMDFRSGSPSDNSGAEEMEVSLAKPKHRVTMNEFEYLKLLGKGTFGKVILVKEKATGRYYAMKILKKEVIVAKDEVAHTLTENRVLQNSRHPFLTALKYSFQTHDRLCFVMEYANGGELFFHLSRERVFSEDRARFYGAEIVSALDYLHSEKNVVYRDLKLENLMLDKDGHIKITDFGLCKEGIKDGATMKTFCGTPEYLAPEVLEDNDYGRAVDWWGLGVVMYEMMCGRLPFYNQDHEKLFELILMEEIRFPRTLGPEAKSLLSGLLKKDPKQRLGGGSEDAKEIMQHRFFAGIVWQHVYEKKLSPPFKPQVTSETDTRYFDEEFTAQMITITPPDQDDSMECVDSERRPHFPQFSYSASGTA

T1 sequence (P31749 whole entry S473D): as the sequence (P31749 whole entry) above, with S473D counted along it

Binder	binding result (GST_Akt1^S473D)	binding result [1]
purified FKBP52 (natural protein, UniProt Q02790 1-459, looked up, FKBP52, His-tagged full length) MTAEEMKATESGAQSAPLPMEGVDISPKQDEGVLKVIKREGTGTEMPMIGDRVFVHYTGWLLDGTKFDSSLDRKDKFSFDLGKGEVIKAWDIAIATMKVGEVCHITCKPEYAYGSAGSPPKIPPNATLVFEVELFEFKGEDLTEEEDGGIIRRIQTRGEGYAKPNEGAIVEVALEGYYKDKLFDQRELRFEIGEGENLDLPYGLERAIQRMEKGEHSIVYLKPSYAFGSVGKEKFQIPPNAELKYELHLKSFEKAKESWEMNSEEKLEQSTIVKERGTVYFKEGKYKQALLQYKKIVSWLEYESSFSNEEAQKAQALRLASHLNLAMCHLKLQAFSAAIESCNKALELDSNNEKGLFRRGEAHLAVNDFELARADFQKVLQLYPNNKAAKTQLAVCQQRIRRQLAREKKLYANMFERLAEEENKAKAEASSGDHPTDTEMKEEQKSNTAGSQSQVETEA	binds	–
purified FKBP51 ΔFK1_FLAG (domain or fragment, UniProt Q13451 143-457, looked up, FKBP51 without the FK1 domain; It was the only construct not checked by active site titration; also called FKBP51 ΔFK1 construct; pProExHta_ΔFK1; source: purified) FEDGGIIRRTKRKGEGYSNPNEGATVEIHLEGRCGGRMFDCRDVAFTVGEGEDHDIPIGIDKALEKMQREEQCILYLGPRYGFGEAGKPKFGIEPNAELIYEVTLKSFEKAKESWEMDTKEKLEQAAIVKEKGTVYFKGGKYMQAVIQYGKIVSWLEMEYGLSEKESKASESFLLAAFLNLAMCYLKLREYTKAVECCDKALGLDSANEKGLYRRGEAQLLMNEFESAKGDFEKVLEVNPQNKAARLQISMCQKKAKEHNERDRRIYANMFKKFAEQDAKEEANKAMGKKTSEGVTNEKGTDSQAMEEEKPEGHV	binds	–

Further lines, results first:

binding result (GST_Akt1^S473D)	binding result [1]	Binder
binds	binds	purified FLAG-tagged FKBP51 (natural protein, UniProt Q13451 1-457, looked up, FKBP51, His-tagged full length; also called FKBP51_FLAG; purified FKBP51) MTTDEGAKNNEESPTATVAEQGEDITSKKDRGVLKIVKRVGNGEETPMIGDKVYVHYKGKLSNGKKFDSSHDRNEPFVFSLGKGQVIKAWDIGVATMKKGEICHLLCKPEYAYGSAGSLPKIPSNATLFFEIELLDFKGEDLFEDGGIIRRTKRKGEGYSNPNEGATVEIHLEGRCGGRMFDCRDVAFTVGEGEDHDIPIGIDKALEKMQREEQCILYLGPRYGFGEAGKPKFGIEPNAELIYEVTLKSFEKAKESWEMDTKEKLEQAAIVKEKGTVYFKGGKYMQAVIQYGKIVSWLEMEYGLSEKESKASESFLLAAFLNLAMCYLKLREYTKAVECCDKALGLDSANEKGLYRRGEAQLLMNEFESAKGDFEKVLEVNPQNKAARLQISMCQKKAKEHNERDRRIYANMFKKFAEQDAKEEANKAMGKKTSEGVTNEKGTDSQAMEEEKPEGHV
binds	–	purified isolated FK506-binding domain of FKBP51 (FKBP51FK1) (domain or fragment, UniProt Q13451 1-140, looked up, detection was with an antibody against the FK1 domain; also called FLAG-tagged FKBP51FK1; source: purified) MTTDEGAKNNEESPTATVAEQGEDITSKKDRGVLKIVKRVGNGEETPMIGDKVYVHYKGKLSNGKKFDSSHDRNEPFVFSLGKGQVIKAWDIGVATMKKGEICHLLCKPEYAYGSAGSLPKIPSNATLFFEIELLDFKGE
